Assay results as given in patent US20230357429A1 (JANUX THERAPEUTICS, published 2023).
Residue numbers refer to the chain shown, from its start. Names and notes keep the numbering of the source. Where no end group is shown, it is not given here.

T1: Human TROP2 Full length (human, UniProt P09758 31-323)
T1 sequence: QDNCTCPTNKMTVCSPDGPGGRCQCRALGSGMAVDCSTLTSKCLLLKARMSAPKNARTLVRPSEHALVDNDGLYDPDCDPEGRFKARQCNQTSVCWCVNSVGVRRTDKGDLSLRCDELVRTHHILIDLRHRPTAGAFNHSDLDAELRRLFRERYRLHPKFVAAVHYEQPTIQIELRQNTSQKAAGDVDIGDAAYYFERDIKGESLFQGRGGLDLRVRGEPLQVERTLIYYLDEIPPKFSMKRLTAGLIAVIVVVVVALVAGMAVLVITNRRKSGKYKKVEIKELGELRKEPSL

T2: Cyno TROP2 Full length (cynomolgus monkey, UniProt P09758 31-323 (human entry))
T2 chain: T1 sequence with M32V, S63N, I200V, M262V, T268S

T3: Human TROP2 ECD (31-274 AA) (human, UniProt P09758 31-274, biotinylated)
T3 construct: also called biotinylated TROP2; TROP2-biotin
T3 sequence: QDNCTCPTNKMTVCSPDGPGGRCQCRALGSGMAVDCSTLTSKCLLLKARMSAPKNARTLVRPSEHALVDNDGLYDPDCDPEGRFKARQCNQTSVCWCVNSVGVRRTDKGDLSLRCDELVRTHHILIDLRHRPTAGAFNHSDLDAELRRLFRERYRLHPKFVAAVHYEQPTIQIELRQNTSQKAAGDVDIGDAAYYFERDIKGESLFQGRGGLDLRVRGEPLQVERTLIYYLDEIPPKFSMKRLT

B1: PC-43 (bispecific antibody)
light: GGVDFCALYHWPICYQGGGGSGGLSGRSDAGSPLGLAGSGGSDIQLTQSPSSLSASVGDRVSITCKASQDVSIAVAWYQQKPGKAPKLLIYSASYRYTGVPDRFSGSGSGTDFTLTISSLQPEDFAVYYCQQHYITPLTFGAGTKVEIKRTVAAPSVFIFPPSDEQLKSGTASVVCLLNNFYPREAKVQWKVDNALQSGNSQESVTEQDSKDSTYSLSSTLTLSKADYEKHKVYACEVTHQGLSSPVTKSFNRGEC
heavy: EVQLVESGGGLVQPGGSLRLSCAASGSTFYTAVMGWVRQAPGKGLEWVAAIRWTALTTSYADSVKGRFTISRDGAKTTLYLQMNSLRPEDTAVYYCAARGTLGLFTTADSYDYWGQGTLVTVSSGGGGSGGGSGGGSACLGPEWEVCPYGGGGSGGGLSGRSDAGSPLGLAGSGGGSEVQLVESGGGLVQPGGSLKLSCAASGFTFNKYAMNWVRQASGKGLEWVGRIRSKYNNYATYYADSVKDRFTISRDDSKNTAYLQMNSLKTEDTAVYYCVRHGNFGNSYISYWAYWGQGTLVTVSSGGGGSGGGGSGGGGSQTVVTQEPSFSVSPGGTVTLTCRSSTGAVTSGNYANWVQQTPGQAPRGLIGGTKFLAPGVPDRFSGSILGNKAALTITGAQADDESDYYCVLWYSNRWVFGGGTKLTVLGGGGSQVQLQQSGSELKKPGASVKVSCKASGYTFTNYGMNWVKQAPGQGLKWMGWINTYTGEPTYTDDFKGRFAFSLDTSVSTAYLQISSLKADDTAVYFCARGGFGSSYWYADVWGQGSLVTVSSASTKGPSVFPLAPSSKSTSGGTAALGCLVKDYFPEPVTVSWNSGALTSGVHTFPAVLQSSGLYSLSSVVTVPSSSLGTQTYICNVNHKPSNTKVDKKVEPKSC
notes: Masked polypeptide complex: anti-TROP2 F108A, anti-CD3 with P41S, A49G, N87S ; E227D

Experiments:
TBD-22 (HC D109A) [1] = biological target: T4, TBD-22 (HC D109A); assay: competition ELISA, Fab on captured TROP2
T4 construct: anti-TROP2 Fab, CDR3 HC alanine mutant

[2] = biological target: T5, TBD-1 wt (anti-TROP2 Fab, hRS7); assay: competition ELISA, Fab on captured TROP2
T5 construct: non-mutated Fab

TBD-6 (LC I93A) [3] = biological target: T6, TBD-6 (LC I93A); assay: competition ELISA, Fab on captured TROP2
T6 construct: anti-TROP2 Fab, CDR3 LC alanine mutant

TBD-17 (HC S104A) [4] = biological target: T7, TBD-17 (HC S104A); assay: competition ELISA, Fab on captured TROP2
T7 construct: anti-TROP2 Fab, CDR3 HC alanine mutant

TBD-21 (HC F108A) [5] = biological target: T8, TBD-21 (HC F108A); assay: competition ELISA, Fab on captured TROP2
T8 construct: anti-TROP2 Fab, CDR3 HC alanine mutant

TBD-11 (HC R98A) [6] = biological target: T9, TBD-11 (HC R98A); assay: competition ELISA, Fab on captured TROP2
T9 construct: anti-TROP2 Fab, CDR3 HC alanine mutant

TBD-21 (HC F108A) [7] = biological target: T10, TBD-21 (HC F108A); assay: competition ELISA, peptide vs Fab binding to captured biotin-TROP2
T10 construct: Fab; also called HC F108A mutant

TBD-22 (HC D109A) [8] = biological target: T11, TBD-22 (HC D109A); assay: as above
T11 construct: Fab; also called HC D109A mutant

TBD-1 wt = biological target: T12, TBD-1 wt; assay: as above
T12 construct: Fab; the heavy chain entry is VH-CH1; also called wild-type anti-TROP2 Fab (hRS7); TROP2 Fab

TBD-6 (LC I93A) [9] = biological target: T13, TBD-6 (LC I93A); assay: as above
T13 construct: Fab; also called LC I93A mutant

TBD-11 (HC R98A) [10] = biological target: T14, TBD-11 (HC R98A); assay: as above
T14 construct: Fab; also called HC R98A mutant

TBD-17 (HC S104A) [11] = biological target: T15, TBD-17 (HC S104A); assay: as above
T15 construct: Fab; also called HC S104A mutant

Human TROP2 Full length = biological target: T1, Human TROP2 Full length; assay: cell-based or functional assay
Cyno TROP2 Full length = biological target: T2, Cyno TROP2 Full length; assay: cell-based or functional assay
[12] = biological target: T3, Human TROP2 ECD (31-274 AA); assay: ELISA; biotinylated TROP2 on neutravidin plates, PC titrated, HRP secondary
CD3 = biological target: T16, CD3 (human, UniProt P07766 23-126, limits assumed, biotinylated); assay: ELISA; biotinylated CD3 on neutravidin plates, PC titrated, HRP secondary
T16 construct: also called biotinylated CD3; CD3-biotin

| Binder | IC50 (TBD-22 (HC D109A) [1]) [nM] | IC50 [2] [nM] | IC50 (TBD-6 (LC I93A) [3]) [nM] | IC50 (TBD-17 (HC S104A) [4]) [nM] | IC50 (TBD-21 (HC F108A) [5]) [nM] | IC50 (TBD-11 (HC R98A) [6]) [nM] | IC50 (TBD-21 (HC F108A) [7]) [nM] | IC50 (TBD-22 (HC D109A) [8]) [nM] | IC50 (TBD-1 wt) [nM] | IC50 (TBD-6 (LC I93A) [9]) [nM] | IC50 (TBD-11 (HC R98A) [10]) [nM] | IC50 (TBD-17 (HC S104A) [11]) [nM] | H292 Cytotoxicity EC50 (pM) (Human TROP2 Full length) | CyTROP2 HEK293 EC50 (pM) (Cyno TROP2 Full length) | EC50 [12] [nM] | EC50 (CD3) [nM] |
| --- | --- | --- | --- | --- | --- | --- | --- | --- | --- | --- | --- | --- | --- | --- | --- | --- |
| IDFCYRYGWPVCQT (mask peptide for the TROP2 Fab) [Peptide-57] | 1910 | 16700 | 12700 | 17300 | 88100 | – | – | – | – | – | – | – | – | – | – | – |
| IDFCRVYDWPVCSL (mask peptide for the TROP2 Fab) [Peptide-53] | 590 | 8930 | 4510 | 7560 | 22700 | 16100 | – | – | – | – | – | – | – | – | – | – |
| VDFCKIYAWPICGS (cysteine pairing not given here; also: biotinylated, site not given here) [Peptide-4] | – | – | – | – | – | – | 3300 | 130 | 460 | 400 | 3240 | 2040 | – | – | – | – |
| VDFCYKYNWPICSR (mask peptide for the TROP2 Fab) [Peptide-55] | 330 | 4390 | 3120 | 7210 | 16800 | 14000 | – | – | – | – | – | – | – | – | – | – |
| VDFCYMYKWPVCYP (mask peptide for the TROP2 Fab) [Peptide-48] | 310 | 10000 | 6260 | 8860 | 75200 | 31300 | – | – | – | – | – | – | – | – | – | – |
| VDFCALYNWPVCAI (mask peptide for the TROP2 Fab) [Peptide-59] | 100 | 3490 | 1940 | 3490 | 9640 | 7550 | – | – | – | – | – | – | – | – | – | – |
| IDFCLIYNWPVCDT (cysteine pairing not given here; also: biotinylated, site not given here) [Peptide-6] | – | – | – | – | – | – | 7940 | 90 | – | 1860 | 8840 | 3090 | – | – | – | – |
| VEFCAIYSWPICKI (mask peptide for the TROP2 Fab) [Peptide-46] | 700 | 5140 | 5180 | 11500 | 25900 | 22300 | – | – | – | – | – | – | – | – | – | – |
| VDFCAIYSWPICKI (mask peptide for the TROP2 Fab) [Peptide-50] | 20 | 560 | 920 | 1540 | 3700 | 1970 | – | – | – | – | – | – | – | – | – | – |
| VDFCGLYHWPICYQ (mask peptide for the TROP2 Fab) [Peptide-8] | 100 | – | 760 | 1250 | 2120 | 940 | – | – | – | – | – | – | – | – | – | – |
| VDFCALYHWPICYQ (mask peptide for the TROP2 Fab) [Peptide-43] | 50 | 270 | 480 | 510 | 1040 | 870 | – | – | – | – | – | – | – | – | – | – |
| B1 | – | – | – | – | – | – | – | – | – | – | – | – | 12700 | 1220 | 587 | 60.7 |
| VDFCALYHWPVCGL (mask peptide for the TROP2 Fab) [Peptide-61] | 260 | 1830 | 1190 | 1830 | 7750 | 12200 | – | – | – | – | – | – | – | – | – | – |
| VDFCYQYGWPICSRV (mask peptide for the TROP2 Fab) [Peptide-56] | 3030 | 10100 | 5620 | 24100 | 106000 | 21000 | – | – | – | – | – | – | – | – | – | – |
| IDFCLLYKWPVCEL (mask peptide for the TROP2 Fab) [Peptide-49] | 70 | 3730 | 2250 | 2530 | 8670 | 6370 | – | – | – | – | – | – | – | – | – | – |
| IDFCAMYQWPICDT (cysteine pairing not given here; also: biotinylated (site not given here)) [Peptide-1] | – | – | – | – | – | – | 2890 | 70 | 780 | 350 | 2490 | 1020 | – | – | – | – |
| VDFCGLYHWPICYQV (mask peptide for the TROP2 Fab) [Peptide-51] | 10 | 180 | 420 | 550 | 1270 | 620 | – | – | – | – | – | – | – | – | – | – |
| VDFCNLYHWPICAI (mask peptide for the TROP2 Fab) [Peptide-60] | 160 | 470 | 670 | 2090 | 5450 | 2560 | – | – | – | – | – | – | – | – | – | – |
| IDFCAVYKWPVCQV (cysteine pairing not given here; also: biotinylated (site not given here)) [Peptide-2] | – | – | – | – | – | – | 5880 | 160 | 2230 | 1100 | 5850 | 2080 | – | – | – | – |
| VDFCYRYSWPVCWA (mask peptide for the TROP2 Fab) [Peptide-54] | 3620 | 27100 | 23400 | 29900 | 161000 | – | – | – | – | – | – | – | – | – | – | – |
